Tested on: peptide library, one residue held at a place counted from the S/T acceptor
Assay: relative phosphorylation of the sub-library (ratio to the mean residue at this position); human; higher = residue favoured
Method in brief: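 Purified recombinant kinases (human or orthologue constructs) were incubated in 384-well plates with biotinylated degenerate peptide sub-libraries, each fixing one residue at one position around a central Ser/Thr. Peptides were at 50 μM, with 50 μM ATP spiked with γ-32P-ATP, for 90 min under kinase-specific conditions. Spots on streptavidin membranes were phosphorimaged and quantified by densitometry. Relative sub-library phosphorylation is a ratio to the mean residue at that position.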

Chain of NEK1, construct: aa1-505 (Q96PY6 1-505, looked up): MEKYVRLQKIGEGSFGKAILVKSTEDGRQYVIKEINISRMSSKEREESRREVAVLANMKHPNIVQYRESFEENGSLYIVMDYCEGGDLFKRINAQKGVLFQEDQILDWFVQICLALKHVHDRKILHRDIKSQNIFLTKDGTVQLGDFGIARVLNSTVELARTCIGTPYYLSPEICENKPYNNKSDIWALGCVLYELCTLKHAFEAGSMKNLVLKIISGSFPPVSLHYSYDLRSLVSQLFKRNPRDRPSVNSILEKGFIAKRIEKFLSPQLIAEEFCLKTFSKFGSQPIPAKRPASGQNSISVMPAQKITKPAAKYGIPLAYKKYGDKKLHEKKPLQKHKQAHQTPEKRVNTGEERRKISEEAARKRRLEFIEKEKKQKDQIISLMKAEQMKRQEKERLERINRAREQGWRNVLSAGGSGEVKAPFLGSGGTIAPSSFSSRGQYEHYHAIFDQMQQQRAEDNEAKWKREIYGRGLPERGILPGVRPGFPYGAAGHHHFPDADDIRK

NEK1, construct: aa1-505 (from UniProt Q96PY6)
relative phosphorylation
Settings	at +1	at +2	at +3	at +4	at -1	at -2	at -3	at -4	at -5
A fixed	0.882	1.08	0.91	1.02	1.2	1	0.996	1.04	0.968
D fixed	0.22	0.456	0.504	0.774	0.566	0.69	0.378	0.781	0.764
E fixed	0.268	0.389	0.41	0.732	0.713	0.706	0.373	0.785	0.678
F fixed	1.36	0.744	1.2	0.804	0.891	0.98	1.61	1.06	1.15
G fixed	1.11	0.85	1.05	1.18	1.3	1.2	1.41	1.3	1.06
H fixed	1.02	1.22	1.03	1.11	1.21	1.08	1.14	0.962	1.05
I fixed	1.27	0.769	0.991	0.792	0.424	0.849	0.571	0.844	0.858
K fixed	1.16	2.06	1.03	1.38	1.46	0.75	1.03	1.33	1.24
L fixed	1.32	0.939	1.17	1	1.08	1.58	1.82	1.12	1.1
M fixed	1.67	0.975	0.907	0.93	1.41	1.24	1.62	0.996	1.13
N fixed	0.61	1.02	0.935	0.912	1.05	1.29	0.629	0.87	0.959
P fixed	0.142	0.95	1.12	1.15	0.558	0.677	1.25	1.14	1.4
Q fixed	1.05	0.706	0.724	1.01	0.889	1.04	0.668	0.799	0.889
R fixed	1.51	2.21	1.63	1.38	1.57	1.27	0.919	1.08	1.15
V fixed	0.958	0.914	0.851	0.78	0.522	0.713	0.444	0.783	0.82
W fixed	1.27	0.727	1.37	1.29	0.895	1.04	1.08	1.23	0.947
Y fixed	1.18	0.996	1.18	0.738	1.26	0.89	1.06	0.887	0.835
pThr fixed	0.424	0.571	0.507	0.579	0.323	0.516	0.508	0.746	0.905
pTyr fixed	0.397	0.434	0.642	0.547	0.707	0.523	0.648	0.851	1.03
